In patent publication US9289478B2, “Formulations of tumour-associated peptides binding to human leukocyte antigen (HLA) class I or class II molecules for vaccine” (IMMATICS BIOTECHNOLOGIES GMBH, priority 2008, dated 2016):

Legend:
[1] = HPLC-assay for stability of peptides in lyophilised formulation on storage for 3 months (Example 4); assay type: physicochemical; settings: for stability of peptides in formulation, 1 M: 1 month; for stability of peptides in formulation, 2 M: 2 months; for stability of peptides in formulation, 3 M: 3 months
Experimental: (§1) Identity, purity and peptide content are determined by analytical RP-HPLC chromatography. Detection wavelength was 220 nm.

[2] = HPLC-assay for in-use stability after reconstitution with 4.2% sodium hydrogen carbonate solution (Example 3, peptides SEQ ID NO 11-23); assay type: physicochemical
Experimental: For clinical trials the above described formulation is dissolved in 700 μl sodium hydrogen carbonate (4.2%). To dissolve the lyophilisate, the vial and the diluent shall be shaken vigorously for 1 minute, check whether solution is clear, otherwise continue shaking for another minute until the solution is clear. Administration of 500 μL of the solution has to occur within 1 h after reconstitution. Dissolved lyophilisate may be stored aseptically at room temperature for up to 1 hour following reconstitution.
as §1

Row | Sequence | stability of peptides in formulation, 1 M ([1]; +5° C. +/- 3° C.) | stability of peptides in formulation, 2 M ([1]; +5° C. +/- 3° C.) | stability of peptides in formulation, 3 M ([1]; +5° C. +/- 3° C.) | stability of peptides in formulation, INITIAL ([1]; +5° C. +/- 3° C.) [%] | stability of peptides in formulation, 1 M ([1]; +25° C. +/- 2° C.) | stability of peptides in formulation, 2 M ([1]; +25° C. +/- 2° C.) | stability of peptides in formulation, 3 M ([1]; +25° C. +/- 2° C.) | stability of peptides in formulation, INITIAL ([1]; +25° C. +/- 2° C.) [%] | stability of peptides in formulation, 1 M ([1]; -20° C. +/- 5° C.) | stability of peptides in formulation, 2 M ([1]; -20° C. +/- 5° C.) | stability of peptides in formulation, 3 M ([1]; -20° C. +/- 5° C.) | stability of peptides in formulation, INITIAL ([1]; -20° C. +/- 5° C.) [%] | in-use stability, Peptide [%] ([2]; +Mannitol/Lutrol, 2h) | in-use stability, Peptide [%] ([2]; +Mannitol/Lutrol, 4h) | in-use stability, Peptide [%] ([2]; +Mannitol/Lutrol, 6h) | in-use stability, Peptide [%] ([2]; +Mannitol/Lutrol, Initial) | in-use stability, Peptide [%] ([2]; no excipients, 2h) | in-use stability, Peptide [%] ([2]; no excipients, 4h) | in-use stability, Peptide [%] ([2]; no excipients, 6h) | in-use stability, Peptide [%] ([2]; no excipients, Initial)
1 | GLWHHQTEV (listed as Homo sapiens) [NRCAM-001, Neuronal cell adhesion molecule peptide] | 99.13 % of Initial | 98.17 % of Initial | 98.79 % of Initial | 100.0 | 97.90 % of Initial | 96.73 % of Initial | 97.59 % of Initial | 100.0 | 99.23 % of Initial | 97.86 % of Initial | 98.91 % of Initial | 100.0 | 99.9 | 100.0 | 99.5 | 100.0 | 99.8 | 100.2 | 95.6 | 100.0
2 | KIQEILTQV (listed as Homo sapiens) [IGF2BP3-001] | 99.00 % of Initial | 97.92 % of Initial | 98.57 % of Initial | 100.0 | 98.01 % of Initial | 96.77 % of Initial | 97.34 % of Initial | 100.0 | 99.10 % of Initial | 97.54 % of Initial | 98.42 % of Initial | 100.0 | 100.4 | 100.6 | 100.7 | 100.0 | 100.0 | 101.2 | 96.0 | 100.0
3 | KVFAGIPTV (listed as Homo sapiens) [PTP-005, Protein tyrosine phosphatase, receptor-type, Z polypeptide 1 peptide] | 98.93 % of Initial | 97.79 % of Initial | 98.67 % of Initial | 100.0 | 98.16 % of Initial | 97.10 % of Initial | 98.30 % of Initial | 100.0 | 98.99 % of Initial | 97.41 % of Initial | 98.34 % of Initial | 100.0 | 100.1 | 100.3 | 99.8 | 100.0 | 99.9 | 100.4 | 95.8 | 100.0
